Laboratory results taken from the supplement of paper PMC7877785.
± gives the uncertainty stated by the source.

Assay: self-splicing fitness, log relative to wild type (ln ratio); higher = more splicing; Tetrahymena group I intron in knt gene, E. coli kanamycin selection, DiMSum; sequences stand for … in CUCUCU…GGAGGGAAAAGUUAUCAGGCAUGCACCUGGUAGCUAGUCUUUAAACCAAUAGAUUGCAUCGGUUUAAAAGGCAAGACCGUCAAAUUGCGGGAAAGGGGUCAACAGCCGUUCAGUACCAAGUCUCAGGGGAAACUUUGAGAUGGCCUUGCAAAGGGUAUGGUAAUAAGCUGACGGACAUGGUCCUAACCACGCAGCCAAGUCCUAAGUCAACAGAUCUUCUGUUGAUAUGGAUGCAGUUCACAGACUAAAUGUCGGUCGGGGAAGAUGUAUUCUUCUCAUAAGAUAUAGUCGGACCUCUCCUUAAUGGGAGCUAGCGGAUGAAGUGAUGCAACACUGGAGCCGCUGGGAACUAAUUUGUAUGCGAAAGUAUAUUGAUUAGUUUUGGAGUACUCGUGGUCG
Method in brief: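 Library with all eight P1ex-region intron nucleotides randomised, intron inside the knt kanamycin-resistance gene on pET-22b(+), in E. coli BL21(DE3). Cells grew overnight at 37°C or 30°C on LB agar with or without 25 μg/mL kanamycin (plus 100 μg/mL carbenicillin, 50 μM IPTG, 0.2% rhamnose), in six replicate transformations. Pooled colonies were amplicon-sequenced on Illumina HiSeq 2500. DiMSum fitness is the error-weighted combination of wild-type-normalised replicate fold changes, kanamycin versus none.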

Sequence | self-splicing fitness (ln) (30 °C) | self-splicing fitness (ln) (37 °C)
CGGUAGCAAUAUUACGACAU | -2.405 ± 0.019 | -1.38 ± 0.035
AGUGAGCAAUAUUACGAGAC | – | -2.17 ± 0.24
GAGAAGCAAUAUUACGUGAU | -1.81 ± 0.084 | -0.801 ± 0.11
GGGCAGCAAUAUUACGUAGU | -0.605 ± 0.086 | -0.727 ± 0.11
CCUUAGCAAUAUUACGCGAU | – | -3.16 ± 0.22
AGACAGCAAUAUUACGGAGC | -3.94 ± 0.17 | -2.93 ± 0.24
UACAAGCAAUAUUACGACUG | -0.079 ± 0.063 | 0.278 ± 0.092
GCCCAGCAAUAUUACGUACC | -1.05 ± 0.12 | 0.0161 ± 0.17
AGUAAGCAAUAUUACGGACU | -1.57 ± 0.15 | 0.25 ± 0.17
GAGGAGCAAUAUUACGCAGU | -2.89 ± 0.28 | -3.66 ± 0.42
ACCCAGCAAUAUUACGCGGA | -0.326 ± 0.05 | 0.218 ± 0.064
CGCCAGCAAUAUUACGCUCG | -2.21 ± 0.13 | -0.347 ± 0.14
GUGGAGCAAUAUUACGACUA | – | -0.509 ± 0.37
AUAUAGCAAUAUUACGGAUA | -2.76 ± 0.31 | -1.63 ± 0.3
AUUCAGCAAUAUUACGAAUG | -1.54 ± 0.11 | -0.673 ± 0.13
CGACAGCAAUAUUACGGGAC | -4.58 ± 0.26 | -1.71 ± 0.14
UAUCAGCAAUAUUACGGACU | -0.533 ± 0.058 | -0.127 ± 0.071
GAUCAGCAAUAUUACGUAAC | -0.807 ± 0.093 | -0.643 ± 0.13
CAUCAGCAAUAUUACGGGGG | -1.94 ± 0.084 | -0.816 ± 0.1
UGACAGCAAUAUUACGCCAA | -1.51 ± 0.14 | -0.461 ± 0.12
AAGCAGCAAUAUUACGUACA | -1.43 ± 0.091 | -0.617 ± 0.11
UUGUAGCAAUAUUACGCGCA | -0.824 ± 0.17 | 0.43 ± 0.19
AUGAAGCAAUAUUACGACAC | 0.0739 ± 0.12 | -0.0401 ± 0.14
UUUAAGCAAUAUUACGCACU | -0.382 ± 0.1 | -0.128 ± 0.12
GAUAAGCAAUAUUACGUGUA | -2.1 ± 0.14 | -1.04 ± 0.14
UGAUAGCAAUAUUACGAUUA | -0.749 ± 0.11 | -0.000856 ± 0.1

Sequence | self-splicing fitness (ln) (30 °C) | self-splicing fitness (ln) (37 °C)
GGCCAGCAAUAUUACGAUCA | -2.93 ± 0.25 | -1.53 ± 0.16
UAGUAGCAAUAUUACGCUGU | -3.6 ± 0.36 | -1.91 ± 0.32
GUUUAGCAAUAUUACGGAUG | -3.5 ± 0.3 | -1.57 ± 0.22
GGACAGCAAUAUUACGGAUG | -3.44 ± 0.16 | -0.131 ± 0.11
UGCAAGCAAUAUUACGACUG | 0.127 ± 0.065 | 0.37 ± 0.087
GGAAAGCAAUAUUACGACGG | -4.1 ± 0.39 | -2.12 ± 0.4
UGAAAGCAAUAUUACGGCCC | -0.866 ± 0.26 | 0.448 ± 0.4
GCAAAGCAAUAUUACGUGCG | -0.856 ± 0.067 | -0.144 ± 0.095
CCGCAGCAAUAUUACGCCCU | -3.34 ± 0.47 | 0.196 ± 0.3
CUCUAGCAAUAUUACGUGUG | -2.93 ± 0.11 | -2.89 ± 0.14
ACUAAGCAAUAUUACGCAAU | -2.04 ± 0.076 | -1.65 ± 0.086
AUGUAGCAAUAUUACGCAUA | -2.46 ± 0.28 | -1.85 ± 0.26
CGGUAGCAAUAUUACGAGUU | -3.87 ± 0.36 | -3.26 ± 0.27
GGGAAGCAAUAUUACGGGUU | -3.15 ± 0.21 | -1.36 ± 0.15
UAGAAGCAAUAUUACGCAGA | -3.4 ± 0.34 | -1.79 ± 0.18
GUCGAGCAAUAUUACGACUC | -2.05 ± 0.32 | -1.15 ± 0.36
GCGCAGCAAUAUUACGGCUA | -0.44 ± 0.092 | 0.0852 ± 0.097
UCCUAGCAAUAUUACGUGCA | -2.86 ± 0.29 | -1.72 ± 0.2
AGCUAGCAAUAUUACGGCUA | -0.83 ± 0.14 | -0.754 ± 0.15
GAAGAGCAAUAUUACGGAAA | -2.81 ± 0.14 | -2.93 ± 0.22
ACCCAGCAAUAUUACGGAUA | -0.912 ± 0.08 | -0.448 ± 0.083
CAUUAGCAAUAUUACGUCAU | -4.39 ± 0.3 | -2.48 ± 0.21
CCAGAGCAAUAUUACGCAUA | -3.74 ± 0.23 | -2.48 ± 0.24
GUCAAGCAAUAUUACGAUGG | -4.88 ± 0.38 | -3.68 ± 0.27
GCUCAGCAAUAUUACGAGGU | -1.06 ± 0.12 | -2.08 ± 0.23
GCAAAGCAAUAUUACGACAA | -1.43 ± 0.1 | -0.838 ± 0.087

Sequence | self-splicing fitness (ln) (30 °C) | self-splicing fitness (ln) (37 °C)
GAGAAGCAAUAUUACGUCGA | -1.54 ± 0.13 | -1.09 ± 0.14
GGCUAGCAAUAUUACGUAAC | -0.594 ± 0.083 | -0.442 ± 0.11
CCAUAGCAAUAUUACGCAAC | -2.54 ± 0.28 | –
UCGUAGCAAUAUUACGUGUA | -2.75 ± 0.12 | -0.347 ± 0.11
ACUGAGCAAUAUUACGGUCC | – | -2.26 ± 0.33
AAUUAGCAAUAUUACGCGUU | -3.13 ± 0.32 | -2.61 ± 0.28
UUUAAGCAAUAUUACGGCCC | 0.344 ± 0.32 | –
GGAAAGCAAUAUUACGCGUC | -3.58 ± 0.22 | -2.89 ± 0.23
CAAAAGCAAUAUUACGCAAA | -2.48 ± 0.14 | -1.76 ± 0.17
UAUUAGCAAUAUUACGAAAC | – | -2.53 ± 0.3
UCCAAGCAAUAUUACGCAGA | -1.58 ± 0.12 | -0.571 ± 0.088
CUCGAGCAAUAUUACGAGGG | -3.45 ± 0.28 | -1.83 ± 0.35
CCAAAGCAAUAUUACGGACC | – | -1.51 ± 0.29
CGUUAGCAAUAUUACGCAAG | -1.97 ± 0.13 | -1.18 ± 0.14
GUUAAGCAAUAUUACGAUCU | -0.419 ± 0.087 | -0.373 ± 0.11
CCCGAGCAAUAUUACGCCGU | -3.61 ± 0.32 | -2.69 ± 0.32
GUACAGCAAUAUUACGGAGA | -3.87 ± 0.35 | -2.81 ± 0.21
GUGCAGCAAUAUUACGACGC | -0.518 ± 0.099 | 0.23 ± 0.13
CUAGAGCAAUAUUACGAGGU | -3.26 ± 0.16 | -3.24 ± 0.3
ACUCAGCAAUAUUACGAGUA | -2.23 ± 0.12 | -1.1 ± 0.1
GCCUAGCAAUAUUACGUUCC | -1.1 ± 0.17 | 0.341 ± 0.19
GUUGAGCAAUAUUACGCACC | -2.94 ± 0.16 | -1.67 ± 0.14
UAUUAGCAAUAUUACGCCUC | – | -3.1 ± 0.48
AGAAAGCAAUAUUACGGCCA | -0.632 ± 0.096 | -0.181 ± 0.13
AGGAAGCAAUAUUACGCAGU | -3.41 ± 0.15 | -0.746 ± 0.095
UAUUAGCAAUAUUACGCCUU | -0.78 ± 0.27 | -0.885 ± 0.36
